Assay [1] concerns the target T1, HER2 (on HER2高表达细胞株 N87 / BT474) (UniProt P04626 23-1255, limits assumed). The assay is described as follows: cell-based or functional assay.
Assay [2] has as its target T1, HER2 (on HER2高表达细胞株 N87 / BT474). The assay is described as follows: cell-based or functional assay. This is another data set of the same source.
The next assay deals with T2, HER2-DI-DIII-L295P/H296N (Homo sapiens (Human), UniProt P04626 23-510).
T2 construct: also called HER2-DI-DIII-L295/H296N
The assay is described as follows: ELISA, plate coated with HER2-DI-DIII-L295P/H296N. In general terms: An ELISA detects its analyte on a solid surface through an enzyme-linked reagent.

Assay [3] concerns the target T3, HER2-DI-DIII-V483A/D480A/E485A (Homo sapiens (Human), UniProt P04626 23-513).
T3 chain: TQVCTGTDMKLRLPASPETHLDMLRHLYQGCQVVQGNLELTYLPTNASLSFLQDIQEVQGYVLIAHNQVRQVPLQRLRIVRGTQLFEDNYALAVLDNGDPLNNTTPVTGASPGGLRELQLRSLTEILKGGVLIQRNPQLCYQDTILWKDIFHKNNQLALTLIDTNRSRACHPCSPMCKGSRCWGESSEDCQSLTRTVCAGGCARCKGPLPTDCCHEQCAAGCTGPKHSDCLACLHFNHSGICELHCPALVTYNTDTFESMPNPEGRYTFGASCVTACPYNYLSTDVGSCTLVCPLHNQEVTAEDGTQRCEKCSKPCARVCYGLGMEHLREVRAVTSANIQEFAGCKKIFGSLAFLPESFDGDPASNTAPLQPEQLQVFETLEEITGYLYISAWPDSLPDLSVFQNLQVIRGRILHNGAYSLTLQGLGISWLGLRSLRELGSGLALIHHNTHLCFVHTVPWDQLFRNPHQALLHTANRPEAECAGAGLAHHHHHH
The assay is described as follows: ELISA, plate coated with HER2-DI-DIII-V483A/D480A/E485A.

For the next assay, the target named is T4, HER2-DI-DIII-his (Homo sapiens (Human), UniProt P04626 23-510).
T4 construct: also called HER2-ECD-DI-DIII
The assay is described as follows: ELISA, plate coated with HER2-DI-DIII-his, detection with HRP-anti human IgG Fc.

B1: 抗HER2抗体612 (antibody, V domains shown)
VH: QVQLVQSGAEVKKPGASVKVSCKGSGYTFTDYAIHWVRQAPGQSLEWIGVFSIYYENINYNQKFKGRATMTVDKSTSTAYMELRSLRSDDTAVYYCARRDGGTINYWGQGTLVTVSS
VL: DVVMTQSPLSLPVTLGQPASISCRSSQSLVHSNGNTYLHWYQQRPGQSPRLLIYKVSNRFSGVPDRFSGSGSGTDFTLKISRVEAEDVGVYFCSQSTHIPWTFGQGTKVEIK
notes: No visible text gives the full heavy chain; also called 19H6-Hu
By EC50 is commonly meant the concentration at which the effect is half-maximal. Regarding B1, the “最大抑制率(%), BT474细胞增殖 (CCK8)” value in assay [1] worked out at 47.1%. Also, the “最大抑制率(%), N87细胞增殖 (CCK8)” value in assay [2] stood at 41.8%. Further, the EC50 worked out at 0.027 nM with HER2-DI-DIII-L295P/H296N and 0.043 nM in the assay with HER2-DI-DIII-his. For the same molecule, the binding result in assay [3] was “no binding (tested: 最高浓度为10nM)”.

The values above are taken from patent CN114805590A (SUNSHINE GUOJIAN PHARMACEUTICAL SHANGHAI CO LTD, dated 2022).
